For 1 protein, Km results are on record in publication PMC12123462, “Novel Click Coupling Chemistry to Explore Glycan Recognition” (ACS Central Science, 2025).

One may read the Km as the concentration of substrate that gives half-maximal velocity.

Substrate in the data set: CC(=O)N[C@H]1[C@H]([C@H](O)[C@H](O)CO)O[C@](OP(=O)(O)OC[C@H]2O[C@@H](n3ccc(N)nc3=O)[C@H](O)[C@@H]2O)(C(=O)O)C[C@@H]1O
Put plainly: neoglycoprotein ELISA, product detected with APDye-532 SNA. In kind it is biochemical, Homo sapiens. The conditions noted are these: acceptor BSA-LNnT immobilised (250 ng/well), MES pH 6.5, 37 °C, 2 h. From the text:
neoglycoprotein ELISA, product detected with APDye-532 SNA on recombinant human ST6Gal1 | K m of CMP-Sia for the recombinant human ST6Gal1
For orientation: In an ELISA, binding on a coated surface is turned into a signal by an enzyme label.

B1: recombinant human ST6Gal1 (Homo sapiens) (protein)
chain: KEKKKGSYYDSFKLQTKEFQVLKSLGKLAMGSDSQSVSSSSTQDPHRGRQTLGSLRGLAKAKPEASFQVWNKDSSSKNLIPRLQKIWKNYLSMNKYKVSYKGPGPGIKFSAEALRCHLRDHVNVSMVEVTDFPFNTSEWEGYLPKESIRTKAGPWGRCAVVSSAGSLKSSQLGREIDDHDAVLRFNGAPTANFQQDVGTKTTIRLMNSQLVTTEKRFLKDSLYNEGILIVWDPSVYHSDIPKWYQNPDYNFFNNYKTYRKLHPNQPFYILKPQMPWELWDILQEISPEEIQPNPPSSGMLGIIIMMTLCDQVDIYEFLPSKRKTDVCYYYQKFFDSACTMGAYHPLLYEKNLVKHLNQGTDEDIYLLGKATLPGFRTIHC
notes: recombinant
For B1, the Km was 141.4 µM.
